# Test results published in publication PMC8411744, “Engineering a Highly Efficient Carboligase for Synthetic One-Carbon Metabolism” (ACS Catalysis, 2021).
# B1: AbfT (4-hydroxybutyrate CoA-transferase) (Clostridium aminobutyricum) (protein)
# chain: MDWKKIYEDRTCTADEAVKSIKSGDRVLFAHCVAEPPVLVEAMVANAAAYKNVTVSHMVTLGKGEYSKPEYKENFTFEGWFTSPSTRGSIAEGHGQFVPVFFHEVPSLIRKDIFHVDVFMVMVSPPDHNGFCCVGVSSDYTMQAIKSAKIVLAEVNDQVPVVYGDTFVHVSEIDKFVETSHPLPEIGLPKIGEVEAAIGKHCASLIEDGSTLQLGIGAIPDAVLSQLKDKKHLGIHSEMISDGVVDLYEAGVIDCSQKSIDKGKMAITFLMGTKRLYDFAANNPKVELKPVDYINHPSVVAQCSKMVCINACLQVDFMGQIVSDSIGTKQFSGVGGQVDFVRGASMSIDGKGKAIIAMPSVAKKKDGSMISKIVPFIDHGAAVTTSRNDADYVVTEYGIAEMKGKSLQDRARALINIAHPDFKDELKAEFEKRFNAAF
# notes: purified
# B2: MeOXC (OXC, oxalyl-CoA decarboxylase) (Methylorubrum extorquens AM1; A415C/E135G/S568G/Y497F) (protein)
# chain: MTVQAQNIDAITAGAMPHEEPELTDGFHLVIDALKLNGIETIYNVPGIPITDLGRLAQAEGLRVISFRHEQNAGNAAAIAGFLTKKPGICLTVSAPGFLNGLTALANATTNCFPMILISGSSEREIVDLQQGDYGEMDQLAIAKPLCKAAFRVLHAADIGIGVARAIRAAVSGRPGGVYLDLPAKLFSQVIDADLGARSLVKVIDAAPAQLPAPAAIARALDVLKSAERPLIILGKGAAYAQADEAVRALVEESGIPYVPMSMAKGLLPDTHPLSAGAARSTALKDSDVVLLVGARLNWLLSHGKGKTWGEPGSKRFIQIDIEPREMDSNVEIVAPVVGDIGSCVEALLDGIRKDWKGAPSNWLETLRGKREANIAKMAPKLMKNSSPMCFHSALGALRTVIKERPDAILVNEGCNTLDLARGIIDMYQPRKRLDVGTWGVMGIGMGFAVAAAVETGKPVLAVEGDSAFGFSGMEVETICRYELPVCIVIFNNNGIFRGTDTDPTGRDPGTTVFVKNSRYDKMMEAFGGVGVNVTTPDELKRAVDEAMNSGKPTLINAEIDPAAGSEGGNIGSLNPQSTLKKK
# notes: recombinant, produced in E. coli; purified; homotetramer; ThDP and Mg2+ dependent
# B3: MeOXC (OXC, oxalyl-CoA decarboxylase) (Methylorubrum extorquens AM1; A415C/S568G) (protein)
# chain: MTVQAQNIDAITAGAMPHEEPELTDGFHLVIDALKLNGIETIYNVPGIPITDLGRLAQAEGLRVISFRHEQNAGNAAAIAGFLTKKPGICLTVSAPGFLNGLTALANATTNCFPMILISGSSEREIVDLQQGDYEEMDQLAIAKPLCKAAFRVLHAADIGIGVARAIRAAVSGRPGGVYLDLPAKLFSQVIDADLGARSLVKVIDAAPAQLPAPAAIARALDVLKSAERPLIILGKGAAYAQADEAVRALVEESGIPYVPMSMAKGLLPDTHPLSAGAARSTALKDSDVVLLVGARLNWLLSHGKGKTWGEPGSKRFIQIDIEPREMDSNVEIVAPVVGDIGSCVEALLDGIRKDWKGAPSNWLETLRGKREANIAKMAPKLMKNSSPMCFHSALGALRTVIKERPDAILVNEGCNTLDLARGIIDMYQPRKRLDVGTWGVMGIGMGFAVAAAVETGKPVLAVEGDSAFGFSGMEVETICRYELPVCIVIFNNNGIYRGTDTDPTGRDPGTTVFVKNSRYDKMMEAFGGVGVNVTTPDELKRAVDEAMNSGKPTLINAEIDPAAGSEGGNIGSLNPQSTLKKK
# notes: as for B2
# B4: MeOXC (OXC, oxalyl-CoA decarboxylase) (Methylorubrum extorquens AM1; A415C/E135G/S568G) (protein)
# chain: MTVQAQNIDAITAGAMPHEEPELTDGFHLVIDALKLNGIETIYNVPGIPITDLGRLAQAEGLRVISFRHEQNAGNAAAIAGFLTKKPGICLTVSAPGFLNGLTALANATTNCFPMILISGSSEREIVDLQQGDYGEMDQLAIAKPLCKAAFRVLHAADIGIGVARAIRAAVSGRPGGVYLDLPAKLFSQVIDADLGARSLVKVIDAAPAQLPAPAAIARALDVLKSAERPLIILGKGAAYAQADEAVRALVEESGIPYVPMSMAKGLLPDTHPLSAGAARSTALKDSDVVLLVGARLNWLLSHGKGKTWGEPGSKRFIQIDIEPREMDSNVEIVAPVVGDIGSCVEALLDGIRKDWKGAPSNWLETLRGKREANIAKMAPKLMKNSSPMCFHSALGALRTVIKERPDAILVNEGCNTLDLARGIIDMYQPRKRLDVGTWGVMGIGMGFAVAAAVETGKPVLAVEGDSAFGFSGMEVETICRYELPVCIVIFNNNGIYRGTDTDPTGRDPGTTVFVKNSRYDKMMEAFGGVGVNVTTPDELKRAVDEAMNSGKPTLINAEIDPAAGSEGGNIGSLNPQSTLKKK
# notes: as for B2
# B5: MeOXC (OXC, oxalyl-CoA decarboxylase) (Methylorubrum extorquens AM1) (protein)
# chain: MTVQAQNIDAITAGAMPHEEPELTDGFHLVIDALKLNGIETIYNVPGIPITDLGRLAQAEGLRVISFRHEQNAGNAAAIAGFLTKKPGICLTVSAPGFLNGLTALANATTNCFPMILISGSSEREIVDLQQGDYEEMDQLAIAKPLCKAAFRVLHAADIGIGVARAIRAAVSGRPGGVYLDLPAKLFSQVIDADLGARSLVKVIDAAPAQLPAPAAIARALDVLKSAERPLIILGKGAAYAQADEAVRALVEESGIPYVPMSMAKGLLPDTHPLSAGAARSTALKDSDVVLLVGARLNWLLSHGKGKTWGEPGSKRFIQIDIEPREMDSNVEIVAPVVGDIGSCVEALLDGIRKDWKGAPSNWLETLRGKREANIAKMAPKLMKNSSPMCFHSALGALRTVIKERPDAILVNEGANTLDLARGIIDMYQPRKRLDVGTWGVMGIGMGFAVAAAVETGKPVLAVEGDSAFGFSGMEVETICRYELPVCIVIFNNNGIYRGTDTDPTGRDPGTTVFVKNSRYDKMMEAFGGVGVNVTTPDELKRAVDEAMNSGKPTLINAEIDPAAGSESGNIGSLNPQSTLKKK
# notes: as for B2
# B6: MeOXC (OXC, oxalyl-CoA decarboxylase) (Methylorubrum extorquens AM1; A415C) (protein)
# chain: MTVQAQNIDAITAGAMPHEEPELTDGFHLVIDALKLNGIETIYNVPGIPITDLGRLAQAEGLRVISFRHEQNAGNAAAIAGFLTKKPGICLTVSAPGFLNGLTALANATTNCFPMILISGSSEREIVDLQQGDYEEMDQLAIAKPLCKAAFRVLHAADIGIGVARAIRAAVSGRPGGVYLDLPAKLFSQVIDADLGARSLVKVIDAAPAQLPAPAAIARALDVLKSAERPLIILGKGAAYAQADEAVRALVEESGIPYVPMSMAKGLLPDTHPLSAGAARSTALKDSDVVLLVGARLNWLLSHGKGKTWGEPGSKRFIQIDIEPREMDSNVEIVAPVVGDIGSCVEALLDGIRKDWKGAPSNWLETLRGKREANIAKMAPKLMKNSSPMCFHSALGALRTVIKERPDAILVNEGCNTLDLARGIIDMYQPRKRLDVGTWGVMGIGMGFAVAAAVETGKPVLAVEGDSAFGFSGMEVETICRYELPVCIVIFNNNGIYRGTDTDPTGRDPGTTVFVKNSRYDKMMEAFGGVGVNVTTPDELKRAVDEAMNSGKPTLINAEIDPAAGSESGNIGSLNPQSTLKKK
# notes: as for B2
# How the values were obtained:
# [1] = target: T1, MeOXC (OXC, oxalyl-CoA decarboxylase) (Methylorubrum extorquens, UniProt C5AX46); experiment: X-ray crystal structure, […] Å; type: binding; details: Mg2+; C-terminal 16 residues modelled
# T1 construct: gene MexAM1_META1p0990; recombinant, produced in E. coli; purified; homotetramer; ThDP and Mg2+ dependent
# [2] = target: T2, MeOXC (OXC, oxalyl-CoA decarboxylase) (Methylorubrum extorquens, UniProt C5AX46, E135G/A415C/Y497F/S568G); experiment: X-ray crystal structure, […] Å; type: binding; details: MeOXC4; Mg2+; C-terminus beyond E567 modelled
# T2 construct: gene MexAM1_META1p0990; recombinant, produced in E. coli; purified; homotetramer; ThDP and Mg2+ dependent
# Excerpt: Substitution E135G gave rise to a cavity in the ThDP binding pocket
# [3] = substrate: CC(C)(COP(=O)(O)OP(=O)(O)OC[C@H]1O[C@@H](n2cnc3c(N)ncnc32)[C@H](O)[C@@H]1OP(=O)(O)O)[C@@H](O)C(=O)NCCC(=O)NCCSC(=O)CO; experiment: CoA transfer from glycolyl-CoA to formate, Michaelis-Menten; type: biochemical, Clostridium aminobutyricum; details: formate 25 mM as acceptor
# Excerpt: CoA transfer from glycolyl-CoA to formate, Michaelis-Menten on AbfT (4-hydroxybutyrate CoA-transferase) | AbfT).
# [4] = substrate: CC(C)(COP(=O)(O)OP(=O)(O)OC[C@H]1O[C@@H](n2cnc3c(N)ncnc32)[C@H](O)[C@@H]1OP(=O)(O)O)[C@@H](O)C(=O)NCCC(=O)NCCSC(=O)C(=O)O; experiment: oxalyl-CoA decarboxylation kinetics; type: biochemical, Methylorubrum extorquens; details: MeOXC4
# [5] = substrate: CC(C)(COP(=O)(O)OP(=O)(O)OC[C@H]1O[C@@H](n2cnc3c(N)ncnc32)[C@H](O)[C@@H]1OP(=O)(O)O)[C@@H](O)C(=O)NCCC(=O)NCCSC=O; experiment: steady-state kinetics, glycolyl-CoA synthase (carboligation) activity; type: biochemical, Methylorubrum extorquens; details: co-substrate formaldehyde, apparent
# Excerpt: (§1) steady-state kinetics, glycolyl-CoA synthase (carboligation) activity on MeOXC (OXC, oxalyl-CoA decarboxylase)
# [6] = substrate: C=O; experiment: as above; type: biochemical, Methylorubrum extorquens; details: co-substrate formyl-CoA, apparent
# Excerpt: as §1
molecule,measurement,setting,value
Cc1ncc(C[n+]2csc(CCOP(=O)(O)OP(=O)(O)O)c2C)c(N)n1 [ThDP],"X-ray crystal structure, 1.9 Å",[1],The overall structure of MeOXC with bound ThDP (orange)
same,"X-ray crystal structure, 2.4 Å",[2],Active site of MeOXC4. Substitution E135G gave rise to a cavity in the ThDP binding pocket
B1,Km,[3],12 ± 1 µM
same,kcat,[3],0.40 ± 0.01 s^–1
B2,Km,[4],122 ± 16 µM
same,kcat,[4],0.21 ± 0.01 s^–1
same,Km,[5]; MeOXC4,220 ± 30 µM
same,kcat,[5]; MeOXC4,2.4 ± 0.2 s⁻¹
same,kcat/Km,[5]; MeOXC4,11000 M⁻¹ s⁻¹
same,Km,[6]; MeOXC4,5000 ± 1000 µM
same,kcat,[6]; MeOXC4,2 ± 0.2 s⁻¹
same,kcat/Km,[6]; MeOXC4,400 M⁻¹ s⁻¹
B3,Km,[5]; MeOXC2,90 ± 20 µM
same,kcat,[5]; MeOXC2,0.43 ± 0.02 s⁻¹
same,kcat/Km,[5]; MeOXC2,5100 M⁻¹ s⁻¹
same,Km,[6]; MeOXC2,12000 ± 3000 µM
same,kcat,[6]; MeOXC2,0.57 ± 0.05 s⁻¹
same,kcat/Km,[6]; MeOXC2,50 M⁻¹ s⁻¹
B4,Km,[5]; MeOXC3,170 ± 40 µM
same,kcat,[5]; MeOXC3,1.6 ± 0.1 s⁻¹
same,kcat/Km,[5]; MeOXC3,9400 M⁻¹ s⁻¹
same,Km,[6]; MeOXC3,12000 ± 3000 µM
same,kcat,[6]; MeOXC3,1.6 ± 0.1 s⁻¹
same,kcat/Km,[6]; MeOXC3,130 M⁻¹ s⁻¹
B5,Km,[5]; concentrations in Table S4,3000 ± 2000 µM
same,kcat,[5]; concentrations in Table S4,0.31 ± 0.08 s⁻¹
same,kcat/Km,[5]; concentrations in Table S4,100 M⁻¹ s⁻¹
same,Km,[6]; concentrations in Table S4,100000 ± 20000 µM
same,kcat,[6]; concentrations in Table S4,0.2 ± 0.01 s⁻¹
same,kcat/Km,[6]; concentrations in Table S4,2 M⁻¹ s⁻¹
B6,Km,[5]; MeOXC1,160 ± 50 µM
same,kcat,[5]; MeOXC1,0.23 ± 0.01 s⁻¹
same,kcat/Km,[5]; MeOXC1,1400 M⁻¹ s⁻¹
same,Km,[6]; MeOXC1,30000 ± 2000 µM
same,kcat,[6]; MeOXC1,0.34 ± 0.01 s⁻¹
same,kcat/Km,[6]; MeOXC1,10 M⁻¹ s⁻¹
